Patent publication US20130123349A1 (US Dept. of Health and Human Services, published 2013)

How the values were obtained:
[1] = target: T1, soluble collagen type I (pepsin-digested, non-fibrillar, triple helical; BD Biosciences) (human, UniProt P02452 179-1192; P08123 91-1104); assay: SPR, global two-state binding model, immobilized soluble collagen type I
T1 construct: also called collagen I; monomeric type I collagen

[2] = target: T1, soluble collagen type I …; assay: SPR, C-terminus-2 (5 to 250 nM) over immobilized soluble collagen type I, two-state model
[3] = target: T1, soluble collagen type I …; assay: SPR, […]; concentration not given
[4] = target: T2, heat-denatured soluble collagen type I (90 min at 98 °C) (human, UniProt P02452 179-1192; P08123 91-1104); assay: SPR, Aegyptin over immobilized heat-denatured collagen type I, two-state model; Ka1
T2 construct: also called Collagen denatured; heat-denatured collagen
T2 sequence (P02452 179-1192, chain 1 of 2): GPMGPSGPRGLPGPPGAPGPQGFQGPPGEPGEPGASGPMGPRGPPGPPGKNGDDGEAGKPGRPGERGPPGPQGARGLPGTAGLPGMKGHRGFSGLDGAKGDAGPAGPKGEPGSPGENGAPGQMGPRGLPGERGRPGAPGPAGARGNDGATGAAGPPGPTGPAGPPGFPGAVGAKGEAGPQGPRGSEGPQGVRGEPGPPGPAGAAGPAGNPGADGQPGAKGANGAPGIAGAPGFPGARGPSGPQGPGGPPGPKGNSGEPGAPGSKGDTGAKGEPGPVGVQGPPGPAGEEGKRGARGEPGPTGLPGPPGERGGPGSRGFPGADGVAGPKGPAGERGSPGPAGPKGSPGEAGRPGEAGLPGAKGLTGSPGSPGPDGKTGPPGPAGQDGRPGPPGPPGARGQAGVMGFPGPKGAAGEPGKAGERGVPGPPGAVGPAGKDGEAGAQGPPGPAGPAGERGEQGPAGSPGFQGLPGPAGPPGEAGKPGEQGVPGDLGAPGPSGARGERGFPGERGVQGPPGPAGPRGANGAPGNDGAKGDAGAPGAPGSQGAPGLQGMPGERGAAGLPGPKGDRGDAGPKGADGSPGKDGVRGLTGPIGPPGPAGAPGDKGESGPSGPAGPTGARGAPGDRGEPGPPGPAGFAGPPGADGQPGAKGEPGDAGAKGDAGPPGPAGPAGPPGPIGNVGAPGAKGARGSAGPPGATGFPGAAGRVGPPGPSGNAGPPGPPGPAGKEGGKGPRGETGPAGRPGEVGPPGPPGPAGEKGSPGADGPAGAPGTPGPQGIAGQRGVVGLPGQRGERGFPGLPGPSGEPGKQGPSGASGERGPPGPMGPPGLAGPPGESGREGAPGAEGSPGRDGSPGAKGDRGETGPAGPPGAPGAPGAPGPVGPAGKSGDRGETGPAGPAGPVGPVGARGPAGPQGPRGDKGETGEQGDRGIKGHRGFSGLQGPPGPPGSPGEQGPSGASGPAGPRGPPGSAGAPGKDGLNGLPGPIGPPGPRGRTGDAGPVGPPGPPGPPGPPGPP
T2 sequence (P08123 91-1104, chain 2 of 2): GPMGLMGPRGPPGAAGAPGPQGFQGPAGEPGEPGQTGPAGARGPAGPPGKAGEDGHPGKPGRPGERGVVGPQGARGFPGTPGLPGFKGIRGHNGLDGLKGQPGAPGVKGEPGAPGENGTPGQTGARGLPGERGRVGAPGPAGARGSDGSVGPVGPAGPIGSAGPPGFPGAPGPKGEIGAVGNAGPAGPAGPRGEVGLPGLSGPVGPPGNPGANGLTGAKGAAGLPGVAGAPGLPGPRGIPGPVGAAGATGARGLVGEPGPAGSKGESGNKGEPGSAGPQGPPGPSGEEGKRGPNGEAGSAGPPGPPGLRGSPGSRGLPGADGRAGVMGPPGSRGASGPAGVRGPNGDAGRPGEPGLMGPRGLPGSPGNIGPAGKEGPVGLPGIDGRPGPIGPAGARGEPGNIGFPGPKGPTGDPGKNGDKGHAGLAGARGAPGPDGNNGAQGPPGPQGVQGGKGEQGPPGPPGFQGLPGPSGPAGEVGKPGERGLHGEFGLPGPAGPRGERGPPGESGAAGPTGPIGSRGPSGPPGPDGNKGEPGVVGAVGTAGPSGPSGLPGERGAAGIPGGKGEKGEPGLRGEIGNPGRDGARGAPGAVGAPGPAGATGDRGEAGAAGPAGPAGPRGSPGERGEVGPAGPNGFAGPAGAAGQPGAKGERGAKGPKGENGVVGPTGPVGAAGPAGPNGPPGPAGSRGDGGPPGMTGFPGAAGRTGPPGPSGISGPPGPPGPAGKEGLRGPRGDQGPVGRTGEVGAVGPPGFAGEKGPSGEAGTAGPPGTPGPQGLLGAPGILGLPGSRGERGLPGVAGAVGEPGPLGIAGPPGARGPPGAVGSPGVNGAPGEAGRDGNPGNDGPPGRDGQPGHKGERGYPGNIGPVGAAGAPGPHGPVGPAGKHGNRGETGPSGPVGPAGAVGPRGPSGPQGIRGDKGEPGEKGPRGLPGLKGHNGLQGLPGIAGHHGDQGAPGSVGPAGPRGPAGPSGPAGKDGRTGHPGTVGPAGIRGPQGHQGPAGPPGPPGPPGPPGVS

[5] = target: T3, soluble collagen type III (pepsin-digested, non-fibrillar; BD Biosciences) (human, UniProt P02461 168-1196); assay: ELISA, inhibition of vWf (3 nM) binding to coated soluble collagen type III; competitor vWf
T3 construct: also called collagen III; soluble collagen III
T3 sequence: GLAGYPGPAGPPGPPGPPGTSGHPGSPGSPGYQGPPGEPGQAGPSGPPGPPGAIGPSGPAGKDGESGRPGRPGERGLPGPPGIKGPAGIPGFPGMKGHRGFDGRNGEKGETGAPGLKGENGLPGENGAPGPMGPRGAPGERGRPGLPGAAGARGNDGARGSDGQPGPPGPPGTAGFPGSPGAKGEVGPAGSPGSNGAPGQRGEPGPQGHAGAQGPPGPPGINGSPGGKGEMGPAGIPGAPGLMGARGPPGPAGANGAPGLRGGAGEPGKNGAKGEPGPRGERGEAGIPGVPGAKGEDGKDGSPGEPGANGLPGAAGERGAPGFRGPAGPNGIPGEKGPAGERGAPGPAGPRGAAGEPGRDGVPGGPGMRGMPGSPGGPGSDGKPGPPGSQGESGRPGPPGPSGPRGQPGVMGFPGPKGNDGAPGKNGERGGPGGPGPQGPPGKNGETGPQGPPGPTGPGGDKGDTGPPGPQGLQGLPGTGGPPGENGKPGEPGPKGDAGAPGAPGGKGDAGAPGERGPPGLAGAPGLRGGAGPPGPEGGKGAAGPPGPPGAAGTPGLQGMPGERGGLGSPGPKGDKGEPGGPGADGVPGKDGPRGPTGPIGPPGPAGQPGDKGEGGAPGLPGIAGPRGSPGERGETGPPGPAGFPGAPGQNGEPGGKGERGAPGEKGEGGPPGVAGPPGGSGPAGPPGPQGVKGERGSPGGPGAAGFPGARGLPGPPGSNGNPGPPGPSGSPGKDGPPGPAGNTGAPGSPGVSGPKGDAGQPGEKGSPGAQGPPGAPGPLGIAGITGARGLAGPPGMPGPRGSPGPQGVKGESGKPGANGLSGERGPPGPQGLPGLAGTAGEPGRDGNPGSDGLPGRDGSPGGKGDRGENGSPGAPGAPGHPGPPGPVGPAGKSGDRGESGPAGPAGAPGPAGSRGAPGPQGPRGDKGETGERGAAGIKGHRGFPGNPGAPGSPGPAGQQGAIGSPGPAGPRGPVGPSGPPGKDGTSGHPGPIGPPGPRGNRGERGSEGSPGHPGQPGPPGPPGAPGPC

[6] = target: T1, soluble collagen type I …; assay: SPR at 15-40 °C, van't Hoff analysis, Aegyptin over immobilized collagen type I; value (±SE)
[7] = target: T1, soluble collagen type I …; assay: SPR, Aegyptin over immobilized soluble collagen type I, 180 s at 30 µl/min, two-state model; Ka1

T1 sequence (P02452 179-1192 limits assumed, chain 1 of 2): as the sequence (P02452 179-1192, chain 1 of 2) above
T1 sequence (P08123 91-1104 limits assumed, chain 2 of 2): as the sequence (P08123 91-1104, chain 2 of 2) above

B1: C-terminus-2 of Aegyptin (137 aa) (other)
chain: GGDEGEDNAEDSKGSEKNDPADTYRQVVALLDKDTKVDHIQSEYLRSALNNDLQSEVRVPVVEAIGRIGDYSKIQGCFKSMGKDVKKVISEEEKKFKSLMSKKKSEYQCSEDSFAAAKSKLSPITSKIKSCVSSKGR
notes: also called C-terminal-2; C-terminus 2 domain
Q: Which Kd [1] does the source give for B1 here?
A: 60.9 nM

Q: And the Kd [2]?
A: ~60 nM

B2: C-terminus 1 of Aegyptin (113 aa) (other)
chain: RQVVALLDKDTKVDHIQSEYLRSALNNDLQSEVRVPVVEAIGRIGDYSKIQGCFKSMGKDVKKVISEEEKKFKSCMSKKKSEYQCSEDSFAAAKSKLSPITSKIKSCVSSKGR
Q: Does B2 bind [3]?
A: no binding

B3: recombinant Aegyptin (other)
chain: RPMPEDEEPVAEGGDDDASGESEGEEETTDDAGGDGGEEENEGEEHAGDKDAGGEDTGKEENTGHDDAGEEDAGEEDAGEEDAGEEDAGEEDAEKEEGEKEDAGDDAGSDDGEEDSTGGDEGEDNAEDSKGSEKNDPADTYRQVVALLDKDTKVDHIQSEYLRSALNNDLQSEVRVPVVEAIGRIGDYSKIQGCFKSMGKDVKKVISEEEKKFKSCMSKKKSEYQCSEDSFAAAKSKLSPITSKIKSCVSSKGRHHHHHH
Q: How did the kon [4] turn out when B3 was run?
A: 674000 M⁻¹ s⁻¹

Q: What about the IC50 [5] of the same binder?
A: 50 nM

Q: And the “ΔS°” value [6]?
A: 95 J/(K * mol)

Q: What about the kon [7] of the same binder?
A: 3.63e+06 M⁻¹ s⁻¹
